Results taken from FireProtDB (doi:10.1006/jmbi.1997.1365).

Settings: Homo sapiens, pH 2.7, Thermal, DSC, glycine 0.05 M, reversible: yes, whole UniProt chain shown

B1: Lysozyme C wild type, P61626 (protein)
chain: MKALIVLGLVLLSVTVQGKVFERCELARTLKRLGMDGYRGISLANWMCLAKWESGYNTRATNYNAGDRSTDYGIFQINSRYWCNDGKTPGAVNACHLSCSALLQDNIADAVACAKRVVRDPQGIRAWVAWRNRCQNRDVRQYVQGCGV
heat capacity change of unfolding (64.9 °C): 1.58 kcal/mol/K | unfolding enthalpy (calorimetric) (64.9 °C): 114 kcal/mol | unfolding enthalpy (van 't Hoff) (64.9 °C): 120 kcal/mol | Tm: 64.9 °C | heat capacity change of unfolding: 1.58 kcal/mol/K
